Assays:
[1] = molecular target: T1, full length cynomolgus monkey EpCAM on CHO-S cells (cynomolgus monkey, UniProt Q1WER1 24-314 (rhesus entry)); assay: flow cytometry on CHO-S cells transfected with cynomolgus monkey EpCAM
T1 sequence: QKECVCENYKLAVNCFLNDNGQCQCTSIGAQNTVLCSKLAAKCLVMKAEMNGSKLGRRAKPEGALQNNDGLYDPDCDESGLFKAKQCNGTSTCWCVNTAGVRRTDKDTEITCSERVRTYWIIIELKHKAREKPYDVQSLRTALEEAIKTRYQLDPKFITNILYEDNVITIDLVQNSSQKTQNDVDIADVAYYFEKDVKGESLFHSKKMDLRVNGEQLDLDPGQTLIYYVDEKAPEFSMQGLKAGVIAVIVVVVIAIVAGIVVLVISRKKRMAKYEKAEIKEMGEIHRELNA

[2] = molecular target: T2, full length mouse EpCAM on CHO-S cells (mouse, UniProt Q99JW5 24-315); assay: flow cytometry on CHO-S cells transfected with mouse EpCAM
T2 sequence: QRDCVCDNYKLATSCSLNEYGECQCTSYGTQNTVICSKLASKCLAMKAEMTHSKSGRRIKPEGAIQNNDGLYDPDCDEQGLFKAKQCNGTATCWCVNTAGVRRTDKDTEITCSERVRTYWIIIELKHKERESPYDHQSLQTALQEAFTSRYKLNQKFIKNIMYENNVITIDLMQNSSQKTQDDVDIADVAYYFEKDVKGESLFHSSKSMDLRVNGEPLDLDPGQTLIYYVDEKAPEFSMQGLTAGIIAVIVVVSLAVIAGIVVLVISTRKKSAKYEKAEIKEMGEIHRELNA

[3] = molecular target: T3, full length human EpCAM on cells (human, UniProt P16422 24-314); assay: flow cytometry on CHO-S cells transfected with human EpCAM
T3 construct: the cell line is named under assay; also called EpCAM on DiFi, HPAF-II and A549 tumor cells; CHO-S cells transfected with full length human EpCAM
T3 sequence: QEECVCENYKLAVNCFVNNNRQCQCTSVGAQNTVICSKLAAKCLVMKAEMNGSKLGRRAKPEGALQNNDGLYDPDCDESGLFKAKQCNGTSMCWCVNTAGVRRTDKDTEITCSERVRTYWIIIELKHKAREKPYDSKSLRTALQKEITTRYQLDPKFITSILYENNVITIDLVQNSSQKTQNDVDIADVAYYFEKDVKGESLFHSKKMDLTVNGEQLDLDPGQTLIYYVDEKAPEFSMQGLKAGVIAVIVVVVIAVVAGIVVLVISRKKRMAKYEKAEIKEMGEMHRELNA

[4] = molecular target: T4, recombinant human EpCAM (R&D systems, cat no 9277-EP) (human, UniProt P16422 24-265); assay: BLI (Octet HTX); His-tagged human EpCAM on anti-Penta-HIS sensors, antibody as analyte; 1:1 global full fit
T4 construct: also called human EpCAM extracellular domain
T4 sequence: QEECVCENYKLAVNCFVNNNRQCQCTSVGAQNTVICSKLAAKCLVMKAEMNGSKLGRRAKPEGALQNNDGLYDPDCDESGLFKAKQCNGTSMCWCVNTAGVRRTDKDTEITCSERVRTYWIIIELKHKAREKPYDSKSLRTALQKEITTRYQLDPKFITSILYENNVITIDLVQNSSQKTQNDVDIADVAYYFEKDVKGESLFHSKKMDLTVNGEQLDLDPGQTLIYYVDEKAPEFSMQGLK

[5] = molecular target: T4, recombinant human EpCAM (R&D systems, …); assay: BLI (Octet HTX); His-tagged human EpCAM on anti-Penta-HIS sensors, antibody 1.56-100 nM as analyte
[6] = molecular target: T3, full length human EpCAM on cells; assay: flow cytometry on DiFi, HPAF-II and A549 tumor cells

B1: bsIgG1-b12-FEAL/EpCAM-323-A3-FEAR (bispecific antibody)
heavy 1: QVQLVQSGAEVKKPGASVKVSCQASGYRFSNFVIHWVRQAPGQRFEWMGWINPYNGNKEFSAKFQDRVTFTADTSANTAYMELRSLRSADTAVYYCARVGPYSWDDSPQDNYYMDVWGKGTTVIVSSASTKGPSVFPLAPSSKSTSGGTAALGCLVKDYFPEPVTVSWNSGALTSGVHTFPAVLQSSGLYSLSSVVTVPSSSLGTQTYICNVNHKPSNTKVDKRVEPKSCDKTHTCPPCPAPEFEGGPSVFLFPPKPKDTLMISRTPEVTCVVVAVSHEDPEVKFNWYVDGVEVHNAKTKPREEQYNSTYRVVSVLTVLHQDWLNGKEYKCKVSNKALPAPIEKTISKAKGQPREPQVYTLPPSREEMTKNQVSLTCLVKGFYPSDIAVEWESNGQPENNYKTTPPVLDSDGSFLLYSKLTVDKSRWQQGNVFSCSVMHEALHNHYTQKSLSLSPG
light 1: EIVLTQSPGTLSLSPGERATFSCRSSHSIRSRRVAWYQHKPGQAPRLVIHGVSNRASGISDRFSGSGSGTDFTLTITRVEPEDFALYYCQVYGASSYTFGQGTKLERKRTVAAPSVFIFPPSDEQLKSGTASVVCLLNNFYPREAKVQWKVDNALQSGNSQESVTEQDSKDSTYSLSSTLTLSKADYEKHKVYACEVTHQGLSSPVTKSFNRGEC
heavy 2: QIQLVQSGPELKKPGETVKISCKASGYTFTNYGMNWVRQASGEGLKWMGWINTYTGEPTYGEDFKGRFAFSLETSASTAYLQINNLKNEDTATYFCARFGNYVDYWGQGTTLTVSSASTKGPSVFPLAPSSKSTSGGTAALGCLVKDYFPEPVTVSWNSGALTSGVHTFPAVLQSSGLYSLSSVVTVPSSSLGTQTYICNVNHKPSNTKVDKRVEPKSCDKTHTCPPCPAPEFEGGPSVFLFPPKPKDTLMISRTPEVTCVVVAVSHEDPEVKFNWYVDGVEVHNAKTKPREEQYNSTYRVVSVLTVLHQDWLNGKEYKCKVSNKALPAPIEKTISKAKGQPREPQVYTLPPSREEMTKNQVSLTCLVKGFYPSDIAVEWESNGQPENNYKTTPPVLDSDGSFFLYSRLTVDKSRWQQGNVFSCSVMHEALHNHYTQKSLSLSPG
light 2: DIVMTQAAFSNPVTLGTSASISCRSSKNLLHSNGITYLYWYLQKPGQSPHLLIYQMSNLASGVPDRFSSSGSGTDFTLRISRVEAEDVGVYYCAQNLEIPRTFGGGTKLEIKRTVAAPSVFIFPPSDEQLKSGTASVVCLLNNFYPREAKVQWKVDNALQSGNSQESVTEQDSKDSTYSLSSTLTLSKADYEKHKVYACEVTHQGLSSPVTKSFNRGEC
B1: binds [1]; binds [2]; binds [3].

B2: BisG2amm-EpCAM-323-A3-AALT/m4-1BB-3H3-AAKR (bispecific antibody, mouse IgG2a, kappa)
heavy 1: QIQLVQSGPELKKPGETVKISCKASGYTFTNYGMNWVRQASGEGLKWMGWINTYTGEPTYGEDFKGRFAFSLETSASTAYLQINNLKNEDTATYFCARFGNYVDYWGQGTTLTVSSAKTTAPSVYPLAPVCGDTTGSSVTLGCLVKGYFPEPVTLTWNSGSLSSGVHTFPAVLQSDLYTLSSSVTVTSSTWPSQSITCNVAHPASSTKVDKKIEPRGPTIKPCPPCKCPAPNAAGGPSVFIFPPKIKDVLMISLSPMVTCVVVDVSEDDPDVQISWFVNNVEVLTAQTQTHREDYNSTLRVVSALPIQHQDWMSGKEFKCKVNNKALPAPIERTISKPKGSVRAPQVYVLPPPEEEMTKKQVTLTCMVTDFMPEDIYVEWTNNGKTELNYKNTEPVLDSDGSYLMYSKLTVEKKNWVERNSYSCSVVHEGLHNHHTTKSFSRTPG
light 1: DIVMTQAAFSNPVTLGTSASISCRSSKNLLHSNGITYLYWYLQKPGQSPHLLIYQMSNLASGVPDRFSSSGSGTDFTLRISRVEAEDVGVYYCAQNLEIPRTFGGGTKLEIKRADAAPTVSIFPPSSEQLTSGGASVVCFLNNFYPKDINVKWKIDGSERQNGVLNSWTDQDSKDSTYSMSSTLTLTKDEYERHNSYTCEATHKTSTSPIVKSFNRNEC
heavy 2: EMQLVESGGGLVQPGRSMKLSCAGSGFTLSDYGVAWVRQAPKKGLEWVAYISYAGGTTYYRESVKGRFTISRDNAKSTLYLQMDSLRSEDTATYYCTIDGYGGYSGSHWYFDFWGPGTMVTVSSAKTTAPSVYPLAPVCGDTTGSSVTLGCLVKGYFPEPVTLTWNSGSLSSGVHTFPAVLQSDLYTLSSSVTVTSSTWPSQSITCNVAHPASSTKVDKKIEPRGPTIKPCPPCKCPAPNAAGGPSVFIFPPKIKDVLMISLSPMVTCVVVDVSEDDPDVQISWFVNNVEVLTAQTQTHREDYNSTLRVVSALPIQHQDWMSGKEFKCKVNNKALPAPIERTISKPKGSVRAPQVYVLPPPEEEMTKKQVTLTCMVKDFMPEDIYVEWTNNGKTELNYKNTEPVLDSDGSYFMYSRLRVEKKNWVERNSYSCSVVHEGLHNHHTTKSFSRTPG
light 2: DIQMTQSPSLLSASVGDRVTLNCRTSQNVYKNLAWYQQKLGEAPKLLIYNANSLQAGIPSRFSGSGSGTDFTLTISSLQPEDVATYFCQQYYSGNTFGAGTNLELKRADAAPTVSIFPPSSEQLTSGGASVVCFLNNFYPKDINVKWKIDGSERQNGVLNSWTDQDSKDSTYSMSSTLTLTKDEYERHNSYTCEATHKTSTSPIVKSFNRNEC
notes: Mouse IgG2a bispecific made by controlled Fab-arm exchange; one EpCAM arm, so monovalent for EpCAM; also called BsIgG2amm-EpCAM-323-A3-AALT/m4-1BB-3H3-AAKR; BisIgG2amm-EpCAM-323-A3-AALT/m4-1BB-3H3-AAKR
In the case of B2, the Kd [4] is reported as 3.2 nM, the koff [4] is reported as 0.0011 s⁻¹ and the kon [4] is reported as 340000 M⁻¹ s⁻¹. For the same binder, the Response [5] was 1.21 nm.

B3: IgG1-b12-FEAL (antibody, V domains shown)
VH: QVQLVQSGAEVKKPGASVKVSCQASGYRFSNFVIHWVRQAPGQRFEWMGWINPYNGNKEFSAKFQDRVTFTADTSANTAYMELRSLRSADTAVYYCARVGPYSWDDSPQDNYYMDVWGKGTTVIVSS
VL: EIVLTQSPGTLSLSPGERATFSCRSSHSIRSRRVAWYQHKPGQAPRLVIHGVSNRASGISDRFSGSGSGTDFTLTITRVEPEDFALYYCQVYGASSYTFGQGTKLERKR
notes: also called negative control antibody
B3: no binding (tested: up to 50 µg/mL) [6].

— US20230295335A1 (published 2023)
